Results reported in patent US11198713B2, “Agents modulating beta-catenin functions and methods thereof” (FOG PHARMACEUTICALS, INC., priority 2017, dated 2021).
Numbered stars: 1 amine (or outer) side, 2 acyl side, 3 side chain; on linkers, the order of the positions; unused ones are H or OH. Bridge positions count the residues as written; N and C are the ends. Square brackets hold non-standard residues; d marks the D form. Primed or numbered codes have the meaning given here. MB(10) = Monomer B = PyrS, pyrrolidine stapling residue with allyl carbamate, (S)-3-amino-1-(allyloxycarbonyl)pyrrolidine-3-carboxylic acid, C=CCOC(=O)N1CC[C@@](N[*:1])(C(=O)[*:2])C1; MB(4) = Monomer B (PyrS), N-Alloc pyrrolidine stapling residue, (S)-3-amino-1-(allyloxycarbonyl)pyrrolidine-3-carboxylic acid, C=CCOC(=O)N1CC[C@@](N[*:1])(C(=O)[*:2])C1; MB(6) = Monomer B (PyrS), N-Alloc pyrrolidine stapling residue, forms carbamate staple with R8 by olefin metathesis; MB = Monomer B = PyrS, Alloc-pyrrolidine stapling residue (allyl carbamate on pyrrolidine N); Tyr(OMe) = O-methyl tyrosine (source code MeY), COc1ccc(C[C@H](N[*:1])C(=O)[*:2])cc1; MB(13) = Monomer B (PyrS), pyrrolidine stapling residue bearing Alloc; MB(5) = Monomer B (PyrS), N-Alloc pyrrolidine stapling residue; Ala(2-furyl) = N[C@@H](Cc1ccco1)C(=O)O; Phe(4-F) = N[C@@H](Cc1ccc(F)cc1)C(=O)O; Phe(4-Me) = Cc1ccc(C[C@H](N)C(=O)O)cc1; 1Nal = N[C@@H](Cc1cccc2ccccc12)C(=O)O; Met(O2) = CS(=O)(=O)CC[C@H](N)C(=O)O; Ala(cPr) = N[C@@H](CC1CC1)C(=O)O; 2Pal = N[C@@H](Cc1ccccn1)C(=O)O; 3Pal = N[C@@H](Cc1cccnc1)C(=O)O; 4Pal = N[C@@H](Cc1ccncc1)C(=O)O; R8 = C=CCCCCCC[C@@](C)(N)C(=O)O; 2Thi = N[C@@H](Cc1cccs1)C(=O)O; αMeL = CC(C)C[C@](C)(N)C(=O)O; Tle = CC(C)(C)[C@H](N)C(=O)O; cpa = 3-cyclopropylalanine; Nva = CCC[C@H](N)C(=O)O; Aib = CC(C)(N)C(=O)O

T1: full-length beta-catenin (UniProt P35222 2-781, limits assumed)
T1 construct: mature; also called full-length ß-Catenin; β-catenin
T1 sequence (looked up): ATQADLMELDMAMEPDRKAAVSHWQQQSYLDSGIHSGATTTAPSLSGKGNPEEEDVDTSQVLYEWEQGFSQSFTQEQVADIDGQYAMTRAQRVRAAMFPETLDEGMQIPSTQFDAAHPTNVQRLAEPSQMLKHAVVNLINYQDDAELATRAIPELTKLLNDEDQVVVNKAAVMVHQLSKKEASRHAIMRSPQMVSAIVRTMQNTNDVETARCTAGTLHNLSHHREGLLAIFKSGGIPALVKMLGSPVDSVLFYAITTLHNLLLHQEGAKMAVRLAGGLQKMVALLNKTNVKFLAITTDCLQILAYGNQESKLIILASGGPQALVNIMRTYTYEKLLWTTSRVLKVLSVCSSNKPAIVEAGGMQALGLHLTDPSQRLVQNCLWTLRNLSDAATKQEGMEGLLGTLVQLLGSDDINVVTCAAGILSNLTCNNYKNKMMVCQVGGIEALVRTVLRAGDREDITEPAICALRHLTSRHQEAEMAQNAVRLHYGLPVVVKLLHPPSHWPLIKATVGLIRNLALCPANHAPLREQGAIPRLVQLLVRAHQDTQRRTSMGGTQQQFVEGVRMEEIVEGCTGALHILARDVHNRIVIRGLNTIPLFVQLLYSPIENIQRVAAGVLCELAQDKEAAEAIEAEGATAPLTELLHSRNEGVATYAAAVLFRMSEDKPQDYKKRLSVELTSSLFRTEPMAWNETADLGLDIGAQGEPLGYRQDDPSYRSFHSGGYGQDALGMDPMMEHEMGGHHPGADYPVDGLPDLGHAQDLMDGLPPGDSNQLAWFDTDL

B1: FP0570c Isomer 2 (peptide)
peptide: Ac-A[R8]ILDA[2Pal]I[MB(6)][Aib]VW-NH2
modifications: staple 2-9; not fully specified; printed as Ac-A-R8-I-L-D-A-2pyr-I-MB-Aib-V-W-NH2
B2: FP0570c Isomer 1 (peptide)
peptide: Ac-A[R8]ILDA[2Pal]I[MB(6)][Aib]VW-NH2
modifications: staple 2-9; not fully specified; printed as Ac-A-R8-I-L-D-A-2pyr-I-MB-Aib-V-W-NH2
B3: FP0574c Isomer 1 (peptide)
peptide: Ac-A[R8]ILDA[2Pal]I[MB(5)][Ala(cPr)]VW-NH2
modifications: staple 2-9; not fully specified; printed as Ac-A-R8-I-L-D-A-2pyr-I-MB-cpa-V-W-NH2
B4: FP0578c Isomer 1 (peptide)
peptide: Ac-A[R8]ILDA[2Pal]I[MB(4)][Phe(4-Me)]VW-NH2
modifications: staple 2-9; not fully specified; printed as Ac-A-R8-I-L-D-A-2pyr-I-MB-4MeF-V-W-NH2
B5: FP0571c Isomer 2 (peptide)
peptide: Ac-A[R8]ILDA[2Pal]I[MB(6)][2Thi]VW-NH2
modifications: staple 2-9; not fully specified; printed as Ac-A-R8-I-L-D-A-2pyr-I-MB-thi-V-W-NH2
B6: FP0578c Isomer 2 (peptide)
peptide: Ac-A[R8]ILDA[2Pal]I[MB(4)][Phe(4-Me)]VW-NH2
modifications: staple 2-9; not fully specified; printed as Ac-A-R8-I-L-D-A-2pyr-I-MB-4MeF-V-W-NH2
B7: FP0567c Isomer 2 (peptide)
peptide: Ac-A[R8]ILDA[2Pal]I[MB(6)][Nva]VW-NH2
modifications: staple 2-9; not fully specified; printed as Ac-A-R8-I-L-D-A-2pyr-I-MB-Nva-V-W-NH2
B8: FP0576c Isomer 1 (peptide)
peptide: Ac-A[R8]ILDA[2Pal]I[MB(4)][Phe(4-F)]VW-NH2
modifications: staple 2-9; not fully specified; printed as Ac-A-R8-I-L-D-A-2pyr-I-MB-4FF-V-W-NH2
B9: FP0571c Isomer 1 (peptide)
peptide: Ac-A[R8]ILDA[2Pal]I[MB(6)][2Thi]VW-NH2
modifications: staple 2-9; not fully specified; printed as Ac-A-R8-I-L-D-A-2pyr-I-MB-thi-V-W-NH2
B10: FP0569c Isomer 2 (peptide)
peptide: Ac-A[R8]ILDA[2Pal]I[MB(6)][Ala(2-furyl)]VW-NH2
modifications: staple 2-9; not fully specified; printed as Ac-A-R8-I-L-D-A-2pyr-I-MB-fur-V-W-NH2
B11: FP0568c Isomer 2 (peptide)
peptide: Ac-A[R8]ILDA[2Pal]I[MB(6)][Tle]VW-NH2
modifications: staple 2-9; not fully specified; printed as Ac-A-R8-I-L-D-A-2pyr-I-MB-tLeu-V-W-NH2
B12: FP0576c Isomer 2 (peptide)
peptide: Ac-A[R8]ILDA[2Pal]I[MB(4)][Phe(4-F)]VW-NH2
modifications: staple 2-9; not fully specified; printed as Ac-A-R8-I-L-D-A-2pyr-I-MB-4FF-V-W-NH2
B13: FP0569c Isomer 1 (peptide)
peptide: Ac-A[R8]ILDA[2Pal]I[MB(6)][Ala(2-furyl)]VW-NH2
modifications: staple 2-9; not fully specified; printed as Ac-A-R8-I-L-D-A-2pyr-I-MB-fur-V-W-NH2
B14: FP0574c Isomer 2 (peptide)
peptide: Ac-A[R8]ILDA[2Pal]I[MB(4)][cpa]VW-NH2
modifications: staple 2-9; not fully specified; printed as Ac-A-R8-I-L-D-A-2pyr-I-MB-cpa-V-W-NH2
B15: FP0568c Isomer 1 (peptide)
peptide: Ac-A[R8]ILDA[2Pal]I[MB(6)][Tle]VW-NH2
modifications: staple 2-9; not fully specified; printed as Ac-A-R8-I-L-D-A-2pyr-I-MB-tLeu-V-W-NH2
B16: FP0575c Isomer 1 (peptide)
peptide: Ac-A[R8]ILDA[2Pal]I[MB(4)][Tyr(OMe)]VW-NH2
modifications: staple 2-9; not fully specified; printed as Ac-A-R8-I-L-D-A-2pyr-I-MB-MeY-V-W-NH2
B17: FP0577c Isomer 1 (peptide)
peptide: Ac-A[R8]ILDA[2Pal]I[MB(4)][1Nal]VW-NH2
modifications: staple 2-9; not fully specified; printed as Ac-A-R8-I-L-D-A-2pyr-I-MB-1NapA-V-W-NH2
B18: FP0573c Isomer 2 (peptide)
peptide: Ac-A[R8]ILDA[2Pal]I[MB(5)][3Pal]VW-NH2
modifications: staple 2-9; not fully specified; printed as Ac-A-R8-I-L-D-A-2pyr-I-MB-3pyr-V-W-NH2
B19: FP0575c Isomer 2 (peptide)
peptide: Ac-A[R8]ILDA[2Pal]I[MB(4)][Tyr(OMe)]VW-NH2
modifications: staple 2-9; not fully specified; printed as Ac-A-R8-I-L-D-A-2pyr-I-MB-MeY-V-W-NH2
B20: FP0572c Isomer 1 (peptide)
peptide: Ac-A[R8]ILDA[2Pal]I[MB(5)][2Pal]VW-NH2
modifications: staple 2-9; not fully specified; printed as Ac-A-R8-I-L-D-A-2pyr-I-MB-2pyr-V-W-NH2
B21: FP0573c Isomer 1 (peptide)
peptide: Ac-A[R8]ILDA[2Pal]I[MB(5)][3Pal]VW-NH2
modifications: staple 2-9; not fully specified; printed as Ac-A-R8-I-L-D-A-2pyr-I-MB-3pyr-V-W-NH2
B22: FP0365c Isomer 1 (peptide)
peptide: AXILDAHIXAVW
modifications: not fully specified; Ac-A-R8-I-L-D-A-H-I-MB-1NapA-V-W-NH2; carbamate staple R8/MB
B23: FP0365c Isomer 2 (peptide)
peptide: AXILDAHIXAVW
modifications: not fully specified; Ac-A-R8-I-L-D-A-H-I-MB-1NapA-V-W-NH2; carbamate staple R8/MB

Each binder was assayed against T1, full-length beta-catenin (assay: competition FP; NB = no binding detected).
Protocol: (§1) In some embodiments, a competition fluorescence polarization assay is used to assess binding of provided compounds to beta-catenin. In an exemplary procedure, solutions of provided compounds, e.g., provided stapled peptides, were prepared in a buffer (e.g., 50 mM Tris pH 8.0, 250 mM NaCl, 2% glycerol, 0.5 mM EDTA, 0.02% w/v sodium azide) using a 3-fold serial dilution from 5 µM. Probe solution (15 nM full-length ß-Catenin, 20 nM FITC labeled peptide in buffer) was prepared and incubated for a period of time, e.g., 5 minutes, and the a volume, e.g., 40 µL per well plated in suitable plate, e.g., a black polystyrene 384-well plate (Corning). Equal volume of the serial diluted peptide was added to the plate and incubated protected from light for 15 minutes prior to read. Reads were performed on a Spectramax M5 (Molecular Devices) in duplicate. Suitable probe was FITC-PEG1-PQ-S5-ILD-S5-HVRRVWR (SEQ ID NO: 1) (hydrocarbon staple formed by two S5 via olefin metathesis) and/or FITC-bA-PQ-S5-ILD-S5-HVRRVWR (SEQ ID NO: 3) (hydrocarbon staple formed by two S5 via olefin metathesis). […] Another peptide, FPO217c (Ac-AR_8ILDAHIM$B5$RVW (SEQ ID NO: 280), with N-terminal proline removed and valine replaced with isoleucine compared to FP0025c) was prepared.

| Binder | binding result |
| --- | --- |
| B1 | no binding |
| B2 | no binding |
| B3 | no binding |
| B4 | no binding |
| B5 | no binding |
| B6 | no binding |
| B7 | no binding |
| B8 | no binding |
| B9 | no binding |
| B10 | no binding |
| B11 | no binding |
| B12 | no binding |
| B13 | no binding |
| B14 | no binding |
| B15 | no binding |
| B16 | no binding |
| B17 | no binding |
| B18 | no binding |
| B19 | no binding |
| B20 | no binding |
| B21 | no binding |

Each binder was assayed against T1, full-length beta-catenin (assay: competition FP, grade of FP EC50 (+: 500-5000 nM)).
Protocol: as §1

| Binder | FP EC50 [nM] |
| --- | --- |
| Ac-A[R8]ILDAHI[MB]RVW-NH2 (staple 2-9; also: Isomer 1, staple olefin E/Z not assigned, also called FPO217c Isomer 1) [FP0217c Isomer 1] | 500 to 5000 |
| B22 | 500 to 5000 |
| Ac-A[R8]ILDAHI[MB(10)]SVW-NH2 (staple 2-9) [FP0542c] | 500 to 5000 |
| Ac-A[R8]ILDAHI[MB(4)]R[αMeL]W-NH2 (staple 2-9) [FP0633c] | 500 to 5000 |
| AXALDAHIXRVW (not fully specified; Ac-A-R8-A-L-D-A-H-I-MB-R-V-W-NH2; carbamate staple R8/MB) [FP0405c] | 500 to 5000 |
| Ac-A[R8]IL[Met(O2)]AHI[MB(5)]RVW-NH2 (staple 2-9) [FP0629c] | 500 to 5000 |
| AXILAAHIXRVW (not fully specified; Ac-A-R8-I-L-A-A-H-I-MB-R-V-W-NH2; carbamate staple R8/MB) [FP0407c] | 500 to 5000 |
| Ac-A[R8]ILDA[4Pal]I[MB(13)]RVW-NH2 (staple 2-9) [FP0538c] | 500 to 5000 |
| B23 | 500 to 5000 |
